B1: REGN16334 (bispecific antibody, human IgG4 S228P, kappa)
heavy 1: QLQLQESGPGLVRPSETLSLTCSVSGASMNTNNYYWGWIRQPPGKGLEWIGSGYYNGNTYYNPSLKSRVTISVDTSKNQFSLKLNSVTAADTAVYYCARQTPPRIIGSPNIWGQGTMVTVSSASTKGPSVFPLAPCSRSTSESTAALGCLVKDYFPEPVTVSWNSGALTSGVHTFPAVLQSSGLYSLSSVVTVPSSSLGTKTYTCNVDHKPSNTKVDKRVESKYGPPCPPCPAPGGGGPSVFLFPPKPKDTLMISRTPEVTCVVVDVSQEDPEVQFNWYVDGVEVHNAKTKPREEQFNSTYRVVSVLTVLHQDWLNGKEYKCKVSNKGLPSSIEKTISKAKGQPREPQVYTLPPSQEEMTKNQVSLTCLVKGFYPSDIAVEWESNGQPENNYKTTPPVLDSDGSFFLYSRLTVDKSRWQEGNVFSCSVMHEALHNHYTQKSLSLSLGK
heavy 2: EVQLVESGGGLVQPGGSLRLSCAASGFTFGSYGMAWVRQAPGKGLEWVSAISGSGDYTNYADSVKRRFTISRDNSKNTLYLQMSSLRAEDTAVYYCAKEKTGTTGYLYSGMDVWGQGTTVTVSSASTKGPSVFPLAPCSRSTSESTAALGCLVKDYFPEPVTVSWNSGALTSGVHTFPAVLQSSGLYSLSSVVTVPSSSLGTKTYTCNVDHKPSNTKVDKRVESKYGPPCPPCPAPGGGGPSVFLFPPKPKDTLMISRTPEVTCVVVDVSQEDPEVQFNWYVDGVEVHNAKTKPREEQFNSTYRVVSVLTVLHQDWLNGKEYKCKVSNKGLPSSIEKTISKAKGQPREPQVYTLPPSQEEMTKNQVSLTCLVKGFYPSDIAVEWESNGQPENNYKTTPPVLDSDGSFFLYSRLTVDKSRWQEGNVFSCSVMHEALHNRFTQKSLSLSPGK
light: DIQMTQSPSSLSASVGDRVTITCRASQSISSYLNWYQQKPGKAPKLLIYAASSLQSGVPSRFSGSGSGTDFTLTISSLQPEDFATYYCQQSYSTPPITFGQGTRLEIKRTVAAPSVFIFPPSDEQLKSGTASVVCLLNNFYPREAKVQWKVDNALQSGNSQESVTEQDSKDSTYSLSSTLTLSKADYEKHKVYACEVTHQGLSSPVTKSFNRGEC
notes: D1 arm from 21519P2, D2 arm from 21520P2, common light chain; also called CD40xCD40 (21519 x 21520)
B2: REGN11209 (comparator anti-CD40 antibody) (antibody, human IgG1, kappa, N297A, V domains shown)
VH: QVQLVESGGGVVQPGRSLRLSCAASGFTFSSYGMHWVRQAPGKGLEWVAVISYEESNRYHADSVKGRFTISRDNSKITLYLQMNSLRTEDTAVYYCARDGGIAAPGPDYWGQGTLVTVSS
VL: DIVMTQSPLSLTVTPGEPASISCRSSQSLLYSNGYNYLDWYLQKPGQSPQVLISLGSNRASGVPDRFSGSGSGTDFTLKISRVEAEDVGVYYCMQARQTPFTFGPGTKVDIRR

Key:
[1] = biological target: T1, human CD40 (hCD40) expressed on cells (human, UniProt P25942 21-277); experiment: cell-based or functional assay
T1 sequence (P25942 21-277): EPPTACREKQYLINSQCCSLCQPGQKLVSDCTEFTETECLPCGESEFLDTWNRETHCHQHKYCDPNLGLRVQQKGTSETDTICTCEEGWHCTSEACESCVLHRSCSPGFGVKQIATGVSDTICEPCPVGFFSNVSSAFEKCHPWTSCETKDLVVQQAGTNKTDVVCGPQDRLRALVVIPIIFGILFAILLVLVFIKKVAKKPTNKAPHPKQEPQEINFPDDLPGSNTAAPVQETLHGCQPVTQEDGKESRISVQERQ

[2] = biological target: T1, human CD40 (hCD40) expressed on cells; experiment: cell-based or functional assay; remark: listed apart in the source
[3] = biological target: T1, human CD40 (hCD40) expressed on cells; experiment: cell-based or functional assay; remark: listed apart in the source
[4] = biological target: T1, human CD40 (hCD40) expressed on cells; experiment: cell-based or functional assay; remark: listed apart in the source
[5] = biological target: T1, human CD40 (hCD40) expressed on cells; experiment: cell-based or functional assay; remark: listed apart in the source
[6] = biological target: T1, human CD40 (hCD40) expressed on cells; experiment: cell-based or functional assay; remark: listed apart in the source
[7] = biological target: T1, human CD40 (hCD40) expressed on cells; experiment: cell-based or functional assay; remark: listed apart in the source
[8] = biological target: T1, human CD40 (hCD40) expressed on cells; experiment: cell-based or functional assay; remark: listed apart in the source
[9] = biological target: T1, human CD40 (hCD40) expressed on cells; experiment: cell-based or functional assay; remark: listed apart in the source
[10] = biological target: T1, human CD40 (hCD40) expressed on cells; experiment: flow cytometry, Ramos 2G6.4C10 cells
Method: (§1) Cells were washed with 2% FBS (w/v) in 1×PBS (flow cytometry staining buffer) by centrifugation with benchtop Centrifuge 5810R (Eppendorf®, Hamburg, Germany). Cells were incubated for 30 minutes at 4° C. with serial dilutions of following antibodies ranging from 1.7 pM to 100 nM in flow cytometry staining buffer (1) anti-CD40×CD40 bispecific antibodies, or (2) parental anti-CD40 antibodies (bivalent antibodies comprising 2 fragment antigen-binding [Fab] arms identical to one of the two anti-CD40 Fab of bispecific anti-CD40×CD40 antibodies), or (3) anti-CD40×Irrelevant antibodies (bivalent antibodies that incorporate one Fab arm identical to one of anti-CD40 Fab of anti-CD40×CD40 antibodies and another Fab arm specific to an irrelevant antigen, i.e. birch pollen main allergen Bet v1), or (4) human IgG4 isotype control antibodies with Fc mutation. After washing, cell bound antibodies were detected with 2.5 μg/ml Allophycocyanin (APC)-conjugated goat anti-human IgG antibody specific for the Fcγ fragment (Jackson Immunoresearch, West Grove, PA) for 30 minutes at 4° C. Cells were washed and subsequently fixed with 50% solution of Cytofix™ Fixation Buffer (BD, Franklin Lakes, NJ) in flow cytometry staining buffer for 20 minutes at room temperature. Cells were washed and resuspended in flow cytometry staining buffer and stored at 4° C. for downstream flow cytometry analysis.
(§2) Acquisition of fluorescence signals were recorded on the ZE5 Cell Analyzer (Bio-Rad, Hercules, CA) according to the manufacturer's recommended procedure and flow cytometry data analysis was performed using the open-source R packages flowCore, flowStats, flowDensity, ggCyto, and flowAI. Multiplexed samples were deconvoluted and individual cell populations were identified based on their unique CellTrace™ fluorescence signature. APC Median Fluorescence intensity (MFI) was recorded to indicate the binding intensity of each antibody over a range of concentrations. Antibodies with MFI greater than 1500 at the highest tested concentration (100 nM) were classified as specific binders. In addition, direct binding signals (APC MFI) were analyzed as a function of the antibody concentration and data were fitted with a sigmoidal (four-parameter logistic) dose-response model using GraphPad Prism™ software.

[11] = biological target: T1, human CD40 (hCD40) expressed on cells; experiment: flow cytometry, HEK293/D9/hCD40 cells
Method: as §1, §2

[12] = biological target: T2, Macaca fascicularis CD40 (mfCD40) expressed on HEK293/D9/mfCD40 cells (Macaca fascicularis, UniProt G7PG38 21-278); experiment: flow cytometry, HEK293/D9/mfCD40 cells
T2 construct: whole, on cells; also called monkey CD40
Method: as §1, §2

[13] = biological target: T3, human CD40 extracellular domain expressed with a C-terminal myc-myc-hexahistidine tag (human); experiment: ELISA blocking of 40 nM hCD40-mmH binding to 9His-hCD40L
T3 construct: also called hCD40-MMH; hCD40-mmH
T3 sequence (chain, as listed by the source limits assumed): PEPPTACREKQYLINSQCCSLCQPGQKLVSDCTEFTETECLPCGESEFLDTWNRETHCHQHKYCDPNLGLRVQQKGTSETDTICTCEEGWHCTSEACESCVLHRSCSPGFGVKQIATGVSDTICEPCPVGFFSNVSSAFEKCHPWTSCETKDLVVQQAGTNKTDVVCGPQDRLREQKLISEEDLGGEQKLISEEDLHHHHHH
Text: An ELISA-based blocking assay was developed to determine the ability of C40×CD40 bispecific antibodies to block the binding of the hCD40 monomer to plate-coated hCD40L. The recombinant human CD40-mmH protein (hCD40-MMH; REGN3094; SEQ ID NO: 53) used in the experiments comprises a portion of the human CD40 extracellular domain (amino acids P20-R193) fused to 2×Myc peptide and 6×histadine (SEQ ID NO: 1110) at the C-terminus of human CD40, and the human CD40L (accession #NM_000074.2) with amino acids E108-L261 of the extracellular domain with 9×His-2×(SGGG)-IGER at the N-terminus (9His-hCD40L) was commercially obtained from Biolegend.
In the blocking assay, 9His-hCD40L was passively absorbed at a concentration of 5 μg/mL in PBS on a 96-well microtiter plate overnight at 4° C. […] In a separate 96-well microtiter plate, a fixed amount of 40 nM hCD40-mmH was pre-mixed with one of the following antibodies, at concentrations ranging from 977 pM to 1 μM in PBS+0.5% BSA: (1) CD40×CD40 bispecific antibodies (REGN16431, REGN16432, REGN16634, and REGN16335); (2) parental CD40 mAbs (bivalent antibodies comprising 2 fragment antigen-binding [Fab] arms identical to one of anti-CD40 Fab of CD40×CD40 antibodies); (3) CD40×Irrelevant antibodies (bivalent antibodies that incorporate one Fab arm identical to one of anti-CD40 Fab of CD40×CD40 antibodies and another Fab arm specific to an irrelevant antigen); and (4) human IgG4 with Fc mutation isotype control antibodies (REGN7540 and REGN4513). The fixed concentration of hCD40-mmH was selected to be near the concentration (EC₅₀ value) that generated 50% of the maximal binding to the plate-adhered 9His-hCD40L. After one-hour incubation, the antibody-antigen complexes were transferred to the microtiter plate coated with 9His-hCD40L. After one hour incubation at room temperature, the plates were washed, and plate-bound hCD40-mmH protein was detected with horseradish peroxidase (HRP) conjugated goat anti-c-Myc antibody. The plates were then developed using TMB substrate solution (BD Biosciences) according to the manufacturer's recommended procedure and the absorbance at 450 nm (OD₄₅₀) was measured on a SpectraMax i3×plate reader.

Binder | % max blockade relative to no mAb, IL-6, donor 1 [4] | % max blockade relative to no mAb, IL-6, donor 2 [4] | % max blockade relative to no mAb, IL-6, donor 3 [4] | % max blockade relative to no mAb, IL-10, donor 1 [5] | % max blockade relative to no mAb, IL-10, donor 2 [5] | % max blockade relative to no mAb, IL-10, donor 3 [5] | % max blockade relative to no mAb, TNFa, donor 1 [6] | % max blockade relative to no mAb, TNFa, donor 2 [6] | % max blockade relative to no mAb, TNFa, donor 3 [6] | % max blockade relative to no mAb, IL-6, assay #2 donor 1 [7] | % max blockade relative to no mAb, IL-6, assay #2 donor 2 [7] | % max blockade relative to no mAb, IL-10, assay #2 donor 1 [8] | % max blockade relative to no mAb, IL-10, assay #2 donor 2 [8] | % max blockade relative to no mAb, TNFa, assay #2 donor 1 [9] | % max blockade relative to no mAb, TNFa, assay #2 donor 2 [9] | further results
B1 | 84.5% | 92% | 92% | 74.2% | 91.4% | 92.4% | 44% | 63.5% | 68.5% | 88.9% | 89.2% | 87.7% | 89.9% | 62.8% | 51.1% | IC50, 500 pM hCD40L, Ramos NFkB-luc [1]: 6.93e-11 M; Max % activation, no ligand, Ramos NFkB-luc [1]: 6%; Max % inhibition, 500 pM hCD40L, Ramos NFkB-luc [1]: 91%; IC50, 900 pM hCD40L, Raji NFkB-luc [2]: 5.76e-11 M; Max % activation, no ligand, Raji NFkB-luc [2]: 13%; Max % inhibition, 900 pM hCD40L, Raji NFkB-luc [2]: 113%; IC50, 10 nM hCD40L, THP-1 NFkB-luc [3]: 0.553 nM; Max % activation, no ligand, THP-1 NFkB-luc [3]: 1%; Max % inhibition, 10 nM hCD40L, THP-1 NFkB-luc [3]: 98%; EC50 [10]: 2 nM; MFI at 100 nM [10]: 3760 MFI; EC50 [11]: 2 nM; MFI at 100 nM [11]: 29000 MFI; EC50 [12]: 9.1 nM; MFI at 100 nM [12]: 41700 MFI; % Blocking at 1 uM mAb [13]: 98%; IC50 [13]: 32 nM
B2 | 84.2% | 91.3% | 91.3% | 84.1% | 91.7% | 91.4% | 53.9% | 71.4% | 73.9% | 88.6% | 88.3% | 88.1% | 90.5% | 62% | 50.6% | 
